Measurements published in patent US20140056903A1 (Regeneron, published 2014).

Target: T1, human GFRα3 expressed with a C-terminal mFc tag (human)
T1 construct: also called hGFRα3-mFc
T1 chain: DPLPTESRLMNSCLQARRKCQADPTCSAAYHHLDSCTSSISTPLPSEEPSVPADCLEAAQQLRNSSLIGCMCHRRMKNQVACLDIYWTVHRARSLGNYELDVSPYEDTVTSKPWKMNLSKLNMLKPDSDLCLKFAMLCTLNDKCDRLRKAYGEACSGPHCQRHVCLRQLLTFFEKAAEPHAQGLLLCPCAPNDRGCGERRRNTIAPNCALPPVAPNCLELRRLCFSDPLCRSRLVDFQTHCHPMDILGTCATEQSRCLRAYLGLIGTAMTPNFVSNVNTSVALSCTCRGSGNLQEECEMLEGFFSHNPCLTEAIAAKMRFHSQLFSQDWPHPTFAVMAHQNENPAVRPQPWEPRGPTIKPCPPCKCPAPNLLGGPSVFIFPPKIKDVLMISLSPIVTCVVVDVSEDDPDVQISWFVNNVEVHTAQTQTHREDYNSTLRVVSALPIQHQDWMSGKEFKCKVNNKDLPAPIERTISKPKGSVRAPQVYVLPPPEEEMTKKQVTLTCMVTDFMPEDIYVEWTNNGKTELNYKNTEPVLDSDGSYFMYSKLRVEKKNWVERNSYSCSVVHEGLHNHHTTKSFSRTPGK
Assay: SPR, Ab captured, 25C; 25° C.

B1: H4H2292S (antibody, human IgG4, V domains shown)
VH: EVQLVESGGGVVQPGRSLRLSCAASGFTFSSYGMHWVRQAPGKGLEWVSFIWYDGSNKYYADSVKGRFTISRDNSKNTLYLQMNSLTAEDTAVYYCARRGILTGTTAFDIWGQGTMVTVSS
VL: DIQMTQSPSSLSASVGDRVTITCRASQSISSYLNWYQQKPGKAPKLLIYAASSLQSGVPSRFSGSGSGTDFTLTIRSLIPEDFATYYCQQTYNTPFTFGPGTKVEIK
notes: human IgG4 Fc (H4H)
- koff: ≤ 1e-06 s⁻¹
